18 molecules from patent US20250270315A1 can be followed below.

Where a chain is given by its changes, count along the chain named.

The chains are these.
B1: 015c (antibody, V domains shown)
VH: EVQLQQSGVEVVQPGASVKLSCTASGFNIEAYYMHWVKQRTEQGLEWIGRIDPEDGESKYAPKFQGKATMTADTSSSTAYLQLSSLTSDDTAVYYCVRGSYEYWGQGTTLTVSS
VL: QIVLTQSPAIMSASPGEKVTLTCSASSSVSSSYLYWYQQKPGSSPKLWIYSTSNLASGVPPRFSGSGSGTSYSLTISSMQAEDAASYFCYQWSSYPYTFGGGTKLEIK
B2: 071c (antibody, V domains shown)
VH: QIQLVQSGPELKKPGETVKISCKASGYTFTTYGMSWVKQAPGKGLKWMVWINTYSGVPTYADDFQGRFAFSLETSASTSYLQINNLRNEDTATYFCARDPHYYGTSPAWFAYWGQGTLVTVSA
VL: DIVMTQSQKFMSTTIGDRVIITCKASQIVGIAVAWYQQKPGQSPKLLIYSASNRFTGVPDRFTGSGSGTDFTLTISNMQSEDLADYFCQQYSTYPFTFGSGTKLEIK
B3: 042c (antibody, V domains shown)
VH: QIQLVQSGPELKKPGETVKISCRASGYTFTTYGMSWVKQAPGKGLRWMGWINTYSGVSTCADDFKGRFAFSLETSATTAYLQIHNLTNEDTATYFCARDPHSYGNSPAWFPYWGQGTLVTVSA
VL: B2 VL with G16R, I20S, I28N, A32S, P40S, F55Y, T93S, F96L, E105A
B4: 073c (antibody, V domains shown)
VH: B2 VH with Q65K, R87K, T105S, A111V
VL: B2 VL with I20S, K24E, F55Y, D85N, T93A, I106V
B5: 059c (antibody, V domains shown)
VH: QVQLQQSGPELVKPGASVKMSCKASGYTFSEYVLSWVKQRTGQGLEWIGEIYPGTITTYYNEKFKGKATLTADKSSNTAYIQLTSLTSEDSAVYFCGRFYDYDGGWFAYWGQGTLLTVSA
VL: ENVLTQSPEKMAVSLGQKVTMTCSASSSVSSSDLHWYQQKSGASPKPLIHGTSNLASGVPARFSGSGSGTSYSLTISSVEAEDAATYYCQQWSGYPWTFGGGTNLEIK
B6: 005c (antibody, V domains shown)
VH: EVKLVESGGGLVQPGGSLSLSCAASGFTFTDYYMSWVRQPPGKALEWLGFIKNEANGYTTESSASVKGRFTISRDNSQSILYLQMNALRAEDSATYYCARYDYYGSNYNWYFDAWGTGTTVTVSS
VL: DIVMTQSQKFMSPSVGDRVSITCKASQNVRTAVAWYQQKPGQSPKVLIHLASKRHTGVPDRFTGSGSGTDFTLTISNVQSEDLADYFCLQHWIHPLTFGAGTKLELK
B7: hu025.021 (antibody, V domains shown)
VH: EVQLVQSGAEVKKPGATVKISCKVSGFNIKDYYMHWVQQAPGKGLEWIGRIDPEDAETKYAPKFQGRVTITADTSTNTAYMELSSLRSEDTAVYYCDRGLAYWGQGTLVTVSS
VL: EIVLTQSPATLSLSPGERATLSCSASSSVSSSYLYWYQQKPGQAPKLWIYSTSNLASGIPARFSGSGSGTDYTLTISSLEPEDFAVYYCHQWSSYPYTFGQGTKLEIK
B8: hu025.060 (antibody, V domains shown)
VH: B7 VH with V24A
VL: B7 VL with Y72F
B9: hu025.023 (antibody, V domains shown)
VH: B7 VH
VL: B7 VL with Y72F
B10: hu025.059 (antibody, V domains shown)
VH: B7 VH with V24A
VL: B7 VL
B11: hu025.033 (antibody, V domains shown)
VH: B7 VH with N77D
VL: B7 VL
B12: 025 (antibody, V domains shown)
VH: EVQLQQSGAELVKPGASVKLSCTASGFNIKDYYMHWVKQRTEQGLEWIGRIDPEDGETKYAPKFQGKATITADTSSNTAYLQLSSLTSEDTAVYYCDRGLAYWGQGTLVTVSA
VL: B1 VL with P61A, Q80E, Y90H
B13: 015 (antibody, V domains shown)
VH: B1 VH
VL: B1 VL
B14: 042 (antibody, V domains shown)
VH: B3 VH
VL: B2 VL with G16R, I20S, I28N, A32S, P40S, F55Y, T93S, F96L, E105A
B15: 073 (antibody, V domains shown)
VH: B2 VH with Q65K, R87K, T105S, A111V
VL: B2 VL with I20S, K24E, F55Y, D85N, T93A, I106V
B16: 071 (antibody, V domains shown)
VH: B2 VH
VL: B2 VL
B17: 059 (antibody, V domains shown)
VH: B5 VH
VL: B5 VL
B18: 005 (antibody, V domains shown)
VH: B6 VH
VL: B6 VL

In one assay the target is human SIRPα v2 expressed on cells (CHOK1 stable line KYinno KC-1720) (human) (UniProt P78324). The experiment in a line: FACS, CHOK1-hSIRPα v2 cells.
Molecule B1 showed an EC50 of 1.58 nM and a TOP MFI of 50100 MFI.
The corresponding values for B2 are 3.31 nM and 46700 MFI.
For B3, in that order: 4.21 nM and 54800 MFI.
For B4, in that order: 2.12 nM and 47300 MFI.
B5 gave a concentration for a half-maximal effect (EC50) of 12 nM and a TOP MFI of 19600 MFI.
Molecule B6 gave an EC50 of 5.47 nM and a TOP MFI of 53300 MFI.

The target is the same in a further assay. The experiment in a line: FACS, CHOK1-hSIRPα v2 cells. The source holds these as a separate data set. (In flow cytometry, cells or beads pass a laser one at a time.)
Take B7: the EC50 is 0.87 nM and the TOP MFI was determined as 46400 MFI.
In turn, B8 had an EC50 of 0.8 nM and a TOP MFI of 48800 MFI.
The corresponding values for B9 are 0.81 nM and 45800 MFI.
Turning to B10, the EC50 was 0.75 nM and the TOP MFI was found to be 47300 MFI.
Consider B11, for which the EC50 was found to be 0.62 nM and the TOP MFI turned out to be 39800 MFI.

Another assay has as its target cyno SIRPα stably expressed on CHOK1 cells (cyno). Briefly: FACS, CHOK1-cyno SIRPα cells.
Molecule B12 had an MFI at 10 nM of 8560 MFI.
B13 yielded an MFI at 10 nM of 10800 MFI.
Same read-out and setting: the same measure for B14: 6850 MFI; for B15: 7850 MFI.
On the same count and under the same terms, the same measure for B16: 8370 MFI.
In the case of B17, the MFI at 10 nM was determined as 5840 MFI.
Same read-out and setting: the same measure for B18: 5970 MFI.

A further assay has the same target. The experiment in a line: FACS, CHOK1-Cyno SIRPα cells.
Regarding B1, the EC50 worked out at 0.69 nM and the TOP MFI amounted to 29700 MFI.
Take B2: the EC50 stood at 2.64 nM and the TOP MFI is 32300 MFI.
On to B3, for which the EC50 came out at 2.95 nM and the TOP MFI amounted to 32400 MFI.
On to B4, for which the EC50 is 1.76 nM and the TOP MFI was determined as 30700 MFI.
In turn, B5 returned an EC50 of 17.2 nM and a TOP MFI of 17400 MFI.

The target of a further assay is Human SIRPα v2 (antigen of the Octet and Biacore affinity measurements) (human) (UniProt P78324). Briefly: BLI (Octet), 1:1 binding model. In general terms: BLI is a label-free optical method that tracks binding on a fibre tip over time.
B1 returned a Kd of 0.937 nM, a koff of 0.00117 s⁻¹ and a kon of 1.24e+06 M⁻¹ s⁻¹.
With B3, the Kd turned out to be 6.14 nM, the koff was determined as 0.00378 s⁻¹ and the kon amounted to 616000 M⁻¹ s⁻¹.

The next assay shares this target. The experiment in a line: SPR (Biacore), 1:1 binding model.
Regarding B7, the equilibrium dissociation constant (Kd) came out at 3.39 nM, the koff was 0.0056 s⁻¹ and the kon amounted to 1.65e+06 M⁻¹ s⁻¹.
The molecule B8 displayed a Kd of 2.34 nM, a koff of 0.00344 s⁻¹ and a kon of 1.47e+06 M⁻¹ s⁻¹.
B9 displayed a Kd of 2.78 nM, a koff of 0.00492 s⁻¹ and a kon of 1.77e+06 M⁻¹ s⁻¹.
In turn, B10 gave a Kd of 2.76 nM, a koff of 0.00392 s⁻¹ and a kon of 1.42e+06 M⁻¹ s⁻¹.

Another assay deals with human SIRPα v2 expressed on cells (CHOK1 stable line KYinno KC-1720) (human) (UniProt P78324). The experiment in a line: competitive FACS, mFc-CD47 ECD on CHOK1-human SIRPα v2 cells.
Take B8: the IC50 worked out at 0.77 nM and the TOP blocking (%) came to 99.8%.
B9 gave an IC50 of 0.75 nM and a TOP blocking (%) of 100%.

The term EC50 denotes the midpoint of the concentration-response curve. Read a high EC50 as lower potency in that assay. For orientation: Kd means the concentration at which binding is half-saturated. The low end stands for tighter binding, the high end for weaker binding. One may read the koff as the first-order rate constant of dissociation. A low value points to a long-lived complex. Usually kon stands for the rate constant with which the complex forms. A high value points to faster complex formation. As usually defined, the IC50 is the concentration that inhibits the measured activity by half. A higher IC50 goes with a need for much substance.
